The results in this text go back to IntAct's records for PubMed 11250154.

The labels stand for the following.
B1: Virulence protein F (Agrobacterium tumefaciens (strain 15955)), P15597 (parent)
chain: MRNSSLRDASGSNDAQVPHKTELLNLPDHVLTEVAKRLATNNPVESAENIANFSKSHRFTRDAVRTEPLEKFSSRLKILSRNAKLLSHAVRHAATLPDGEQLSEAQLSQMRSEVATRPVLGVAYTHQDGQPEERLSGNHLDHKINNIPNLVFNVAEPIMFNEISALEVMAEVRPIARSIKTAHDDARAELMSADRPRSTRGL

In the first experiment the parent is B1. The settings on record: with skp1a_arath SKP1A.
With MRNSSLRDASGSNDAQVPHKTELLNAADHVLTEVAKRLATNNPVESAENIANFSKSHRFTRDAVRTEPLEKFSSRLKILSRNAKLLSHAVRHAATLPDGEQLSEAQLSQMRSEVATRPVLGVAYTHQDGQPEERLSGNHLDHKINNIPNLVFNVAEPIMFNEISALEVMAEVRPIARSIKTAHDDARAELMSADRPRSTRGL [L26A;P27A], the “effect of a mutation on the interaction” value is given as “decreasing interaction strength”.

Variants of B1 are the subject of the next experiment. The settings on record: with skp1b_arath SKP1B.
In the case of MRNSSLRDASGSNDAQVPHKTELLNAADHVLTEVAKRLATNNPVESAENIANFSKSHRFTRDAVRTEPLEKFSSRLKILSRNAKLLSHAVRHAATLPDGEQLSEAQLSQMRSEVATRPVLGVAYTHQDGQPEERLSGNHLDHKINNIPNLVFNVAEPIMFNEISALEVMAEVRPIARSIKTAHDDARAELMSADRPRSTRGL [L26A;P27A], the “effect of a mutation on the interaction” value is recorded as “decreasing interaction strength”.
